Assay results reported in patent publication US20200199204A1 (UNITED STATES OF AMERICA AS REPRESENTED BY THE SECRETARY …, published 2020).

How the values were obtained:
Assay in all cases: cell-based or functional assay
[1] = target: HIV-1 Env of MB539.2B7 (HIV-1)
[2] = target: HIV-1 Env of RHPA.7 (HIV-1)
[3] = target: HIV-1 Env of DU172.17 (HIV-1)
[4] = target: HIV-1 Env of CNE3 (HIV-1)
[5] = target: HIV-1 Env of 191821.E6.1 (HIV-1)
[6] = target: HIV-1 Env of ZM249.1 (HIV-1)
[7] = target: HIV-1 Env of WITO.33 (HIV-1)
[8] = target: HIV-1 Env of RW020.2 (HIV-1)
[9] = target: HIV-1 Env of ZM197.7 (HIV-1)
[10] = target: HIV-1 Env of ZM53.12 (HIV-1)
[11] = target: HIV-1 Env of ZM109.4 (HIV-1)
[12] = target: HIV-1 Env of BG505.w6m (HIV-1)
[13] = target: HIV-1 Env of 6535.3 (HIV-1)
[14] = target: HIV-1 Env of CAP244.D3 (HIV-1)
[15] = target: HIV-1 Env of AC10.29 (HIV-1)
[16] = target: HIV-1 Env of REJO.67 (HIV-1)
[17] = target: HIV-1 Env of TRJO.58 (HIV-1)
[18] = target: HIV-1 Env of Q769.d22 (HIV-1)
[19] = target: HIV-1 Env of Q461.e2 (HIV-1)
[20] = target: HIV-1 Env of CAAN.A2 (HIV-1)
[21] = target: HIV-1 Env of KER2008.12 (HIV-1)
[22] = target: HIV-1 Env of Q168.a2 (HIV-1)
[23] = target: HIV-1 Env of MB201 (HIV-1)
[24] = target: HIV-1 Env of DU156.12 (HIV-1)
[25] = target: HIV-1 Env of CM244.ec1 (HIV-1)
[26] = target: HIV-1 Env of CAP210.E8 (HIV-1)
[27] = target: HIV-1 Env of TH976.17 (HIV-1)
[28] = target: HIV-1 Env of C1080.c3 (HIV-1)
[29] = target: HIV-1 Env of Q259.d2.17 (HIV-1)
[30] = target: HIV-1 Env of TRO.11 (HIV-1)
[31] = target: HIV-1 Env of 6405.v4.c34 (HIV-1)
[32] = target: HIV-1 Env of DU422.01 (HIV-1)
[33] = target: HIV-1 Env of 3016.V5.c36 (HIV-1)
[34] = target: HIV-1 Env of QH0692.42 (HIV-1)
[35] = target: HIV-1 Env of UG037.8 (HIV-1)
[36] = target: HIV-1 Env of ZM233.6 (HIV-1)
[37] = target: HIV-1 Env of 96ZM651.02 (HIV-1)
[38] = target: HIV-1 Env of PVO.04 (HIV-1)
[39] = target: HIV-1 Env of ZM135.10a (HIV-1)
[40] = target: HIV-1 Env of ZM214.15 (HIV-1)
[41] = target: HIV-1 Env of CAP256.SU (HIV-1)
[42] = target: HIV-1 Env of Q842.d12 (HIV-1)
[43] = target: HIV-1 Env of CAP45.G3 (HIV-1)
[44] = target: HIV-1 Env of CAP256.PI (HIV-1)
[45] = target: HIV-1 Env of KER2018.11 (HIV-1)
[46] = target: HIV-1 Env of THRO.18 (HIV-1)
[47] = target: HIV-1 Env of SC422.8 (HIV-1)
[48] = target: HIV-1 Env of 0260.v5.c36 (HIV-1)
[49] = target: HIV-1 Env of Q23.17 (HIV-1)

B1: CAP256-VRC26.05 (antibody, V domains shown)
VH: EVQLVESGGGVVQPGRSLRLSCAASHFSLSSYGMHWVRQAPGKGLEWVTGISFAGTKTYYGDSVRGRFTVSRDISKNTLFLQMNSLRPDDTAMYYCARDQRYYECEEWASDYYDFGREQPCLDPRGVVGIFDLWGQGTMVTVSS
VL: QSALTQPPSVSAAPGQKVTISCSGNIGNNYVSWYQQVPGTAPKLLIYENNKRPSGIPDRFSGSKSGTSATLVITGLQTGDEADFYCGTWGGSLRTGGVLGTGTRVTVLG
neutralization IC50 [1]: > 50 µg/mL | neutralization IC50 [2]: > 50 µg/mL | neutralization IC50 [3]: > 50 µg/mL | neutralization IC50 [4]: > 50 µg/mL | neutralization IC50 [5]: > 50 µg/mL | neutralization IC50 [6]: > 50 µg/mL | neutralization IC50 [7]: > 50 µg/mL | neutralization IC50 [8]: > 50 µg/mL | neutralization IC50 [9]: 0.113 µg/mL | neutralization IC50 [10]: 0.012 µg/mL | neutralization IC50 [11]: 26.5 µg/mL | neutralization IC50 [12]: > 50 µg/mL | neutralization IC50 [13]: > 50 µg/mL | neutralization IC50 [14]: > 50 µg/mL | neutralization IC50 [15]: > 50 µg/mL | neutralization IC50 [16]: > 50 µg/mL | neutralization IC50 [17]: > 50 µg/mL | neutralization IC50 [18]: > 50 µg/mL | neutralization IC50 [19]: > 50 µg/mL | neutralization IC50 [20]: > 50 µg/mL | neutralization IC50 [21]: > 50 µg/mL | neutralization IC50 [22]: > 50 µg/mL | neutralization IC50 [23]: > 50 µg/mL | neutralization IC50 [24]: > 50 µg/mL | neutralization IC50 [25]: 0.517 µg/mL | neutralization IC50 [26]: 0.013 µg/mL | neutralization IC50 [27]: > 50 µg/mL | neutralization IC50 [28]: > 50 µg/mL | neutralization IC50 [29]: 0.023 µg/mL | neutralization IC50 [30]: > 50 µg/mL | neutralization IC50 [31]: > 50 µg/mL | neutralization IC50 [32]: > 50 µg/mL | neutralization IC50 [33]: 0.011 µg/mL | neutralization IC50 [34]: > 50 µg/mL | neutralization IC50 [35]: > 50 µg/mL | neutralization IC50 [36]: 0.003 µg/mL | neutralization IC50 [37]: > 50 µg/mL | neutralization IC50 [38]: 44.4 µg/mL | neutralization IC50 [39]: > 50 µg/mL | neutralization IC50 [40]: > 50 µg/mL | neutralization IC50 [41]: 0.007 µg/mL | neutralization IC50 [42]: > 50 µg/mL | neutralization IC50 [43]: > 50 µg/mL | neutralization IC50 [44]: > 50 µg/mL | neutralization IC50 [45]: 0.012 µg/mL | neutralization IC50 [46]: > 50 µg/mL | neutralization IC50 [47]: > 50 µg/mL | neutralization IC50 [48]: > 50 µg/mL | neutralization IC50 [49]: > 50 µg/mL
